Reference: the supplement of paper PMC10567573

B1: SLC19A2 (parent)
chain: FASLRPSEPFLTPYLLGPDKNLTE

Variants of: B1
Experiment: protein stability index of a GFP-peptide fusion (GPS, HEK-293T) (PSI 1-6); higher = more stable
Settings: c terminus: a fixed tail appended
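Note: lentivirally expressed fusions sorted by FACS into six bins by GFP to DsRed ratio, PSI derived from sequencing read proportions per bin multiplied by bin number.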

For GASLRPSEPFLTPYLLGPDKNLTE, which protein stability index is on record?
The protein stability index was 4.22.

With SASLRPSEPFLTPYLLGPDKNLTE as the variant, how does the protein stability index read?
Its protein stability index is 4.12.

For FASLRPSEPFLTPYLLGPDMNLTE, which protein stability index is on record?
The protein stability index was 1.98.

For FASLRPSEPFLTPYLLGPDNNLTE, which protein stability index is on record?
Its protein stability index is 2.13.

With FASLRPSEPFLTPYLLGPDSNLTE as the variant, how does the protein stability index read?
The protein stability index was 2.29.

For FASLRPSEPFLTPYLLGPDHNLTE, which protein stability index is on record?
Its protein stability index is 1.97.

Which protein stability index does the source give for FASLRPSEPFLTPYLLGPDINLTE here?
Its protein stability index is 2.44.

With FASLRPSEPFLTPYLLGPDVNLTE as the variant, how does the protein stability index read?
The protein stability index was 1.84.

Which protein stability index does the source give for FASLRPSEPFLTPYLLGPFKNLTE here?
Its protein stability index is 1.87.

With FASLRPSEPFLTPYLLGPTKNLTE as the variant, how does the protein stability index read?
The protein stability index was 1.9.

Which protein stability index does the source give for FASLRPSEPFLTPYLLGPRKNLTE here?
The protein stability index was 2.25.

For FASLRPSELFLTPYLLGPDKNLTE, which protein stability index is on record?
The protein stability index was 2.5.

With FASLRPSENFLTPYLLGPDKNLTE as the variant, how does the protein stability index read?
The protein stability index was 2.52.

With FASLRPSEDFLTPYLLGPDKNLTE as the variant, how does the protein stability index read?
Its protein stability index is 2.85.

With FASLRPSEIFLTPYLLGPDKNLTE as the variant, how does the protein stability index read?
The protein stability index was 1.77.

For FASLRPSEGFLTPYLLGPDKNLTE, which protein stability index is on record?
The protein stability index was 2.18.

With FASLRPSEEFLTPYLLGPDKNLTE as the variant, how does the protein stability index read?
The protein stability index was 1.82.

Which protein stability index does the source give for FASLRPSEPSLTPYLLGPDKNLTE here?
Its protein stability index is 2.16.

With FASLRPSEPLLTPYLLGPDKNLTE as the variant, how does the protein stability index read?
Its protein stability index is 2.12.

Which protein stability index does the source give for FASLRPSEPVLTPYLLGPDKNLTE here?
The protein stability index was 2.67.

With FASLRPSEPPLTPYLLGPDKNLTE as the variant, how does the protein stability index read?
The protein stability index was 3.15.

For FASLRPSEPALTPYLLGPDKNLTE, which protein stability index is on record?
Its protein stability index is 2.52.

For FASLRPSEPILTPYLLGPDKNLTE, which protein stability index is on record?
The protein stability index was 2.23.

With FASLRPSEPFLTPYLLGPDKNTTE as the variant, how does the protein stability index read?
The protein stability index was 2.25.

With FASQRPSEPFLTPYLLGPDKNLTE as the variant, how does the protein stability index read?
Its protein stability index is 2.15.

Which protein stability index does the source give for FASPRPSEPFLTPYLLGPDKNLTE here?
Its protein stability index is 2.98.

For FASYRPSEPFLTPYLLGPDKNLTE, which protein stability index is on record?
The protein stability index was 1.7.

For FASLRPSEPFLTPYLLGPDKMLTE, which protein stability index is on record?
The protein stability index was 2.39.

With FASLRPSEPFKTPYLLGPDKNLTE as the variant, how does the protein stability index read?
The protein stability index was 2.03.

Which protein stability index does the source give for FASLRPSEPFATPYLLGPDKNLTE here?
The protein stability index was 2.42.

For FASLRPSEPFCTPYLLGPDKNLTE, which protein stability index is on record?
The protein stability index was 1.86.

With FASLRPSEPFLTPYLPGPDKNLTE as the variant, how does the protein stability index read?
Its protein stability index is 1.79.

For FASLRPSEPFLTPYLDGPDKNLTE, which protein stability index is on record?
The protein stability index was 2.65.

With FASLRPSEPFLTPYLFGPDKNLTE as the variant, how does the protein stability index read?
Its protein stability index is 2.04.

Which protein stability index does the source give for FASLRPSEPFLTPYLRGPDKNLTE here?
The protein stability index was 2.44.

For FASLRPSRPFLTPYLLGPDKNLTE, which protein stability index is on record?
Its protein stability index is 1.59.

With FASLRPSTPFLTPYLLGPDKNLTE as the variant, how does the protein stability index read?
Its protein stability index is 1.81.

For FASLRPSEPFLTPYLLGPDKNLCE, which protein stability index is on record?
Its protein stability index is 2.12.

With FASLRPSEPFLTPYLLGPDKNLQE as the variant, how does the protein stability index read?
The protein stability index was 3.16.

With FASLRPSEPFLTPYLLGPDKNLME as the variant, how does the protein stability index read?
Its protein stability index is 1.52.

Which protein stability index does the source give for FASLRPSEPFLTPYLLGPDKNLKE here?
The protein stability index was 2.09.

With FASLRPSEPFLTPYLLGPDKNLYE as the variant, how does the protein stability index read?
The protein stability index was 2.27.

Which protein stability index does the source give for FASLGPSEPFLTPYLLGPDKNLTE here?
The protein stability index was 1.57.

Which protein stability index does the source give for FASLRPSEPFLTPYLLGPDKNLTT here?
The protein stability index was 1.8.

Which protein stability index does the source give for FASLRPSEPFLTPYLLGPDKNLTR here?
Its protein stability index is 2.39.

Which protein stability index does the source give for FASLRPSEPFLTPYLLGPDKNLTD here?
Its protein stability index is 2.01.

Which protein stability index does the source give for FASLRPSEPFLTPYLLGPDKNLTQ here?
Its protein stability index is 2.06.

For FASLRPSEPFLTPYLLGPDKNLTL, which protein stability index is on record?
The protein stability index was 1.27.

Which protein stability index does the source give for FASLRPSEPFLTPYMLGPDKNLTE here?
The protein stability index was 2.23.

For FASLRPSEPFLTPYDLGPDKNLTE, which protein stability index is on record?
Its protein stability index is 2.43.

For FASLRPSEPFLTPYVLGPDKNLTE, which protein stability index is on record?
Its protein stability index is 1.86.

For FASLRPSEPFLTPYYLGPDKNLTE, which protein stability index is on record?
The protein stability index was 1.78.

Which protein stability index does the source give for FASLRFSEPFLTPYLLGPDKNLTE here?
Its protein stability index is 1.58.

Which protein stability index does the source give for FASLRISEPFLTPYLLGPDKNLTE here?
Its protein stability index is 3.26.

With FASLRTSEPFLTPYLLGPDKNLTE as the variant, how does the protein stability index read?
Its protein stability index is 2.7.

With FASLRGSEPFLTPYLLGPDKNLTE as the variant, how does the protein stability index read?
Its protein stability index is 1.71.

Which protein stability index does the source give for FASLRHSEPFLTPYLLGPDKNLTE here?
The protein stability index was 1.54.

With FASLRPSEPFLTPYLLKPDKNLTE as the variant, how does the protein stability index read?
Its protein stability index is 2.23.

Which protein stability index does the source give for FASLRPSEPFLTPYLLCPDKNLTE here?
The protein stability index was 1.05.

With FASLRPSEPFLTPYLLDPDKNLTE as the variant, how does the protein stability index read?
The protein stability index was 1.59.

Which protein stability index does the source give for FASLRPSEPFLTPYLLAPDKNLTE here?
Its protein stability index is 1.81.

With FASLRPSEPFLTPYLLMPDKNLTE as the variant, how does the protein stability index read?
The protein stability index was 1.7.

Which protein stability index does the source give for FASLRPSEPFLTPYLLVPDKNLTE here?
The protein stability index was 1.89.

With FASLRPWEPFLTPYLLGPDKNLTE as the variant, how does the protein stability index read?
The protein stability index was 3.01.

For FASLRPGEPFLTPYLLGPDKNLTE, which protein stability index is on record?
The protein stability index was 2.07.

With FASLRPLEPFLTPYLLGPDKNLTE as the variant, how does the protein stability index read?
Its protein stability index is 1.72.

Which protein stability index does the source give for FASLRPYEPFLTPYLLGPDKNLTE here?
The protein stability index was 1.42.

Which protein stability index does the source give for FASLRPSEPFLTPYLLGIDKNLTE here?
The protein stability index was 2.31.

With FASLRPSEPFLTPYLLGYDKNLTE as the variant, how does the protein stability index read?
Its protein stability index is 1.61.

Which protein stability index does the source give for FASLRPSEPFLTPYLLGFDKNLTE here?
Its protein stability index is 1.54.

Which protein stability index does the source give for FASLRPSEPFLTPYLLGDDKNLTE here?
The protein stability index was 2.

For FASLRPSEPFLTPYLLGNDKNLTE, which protein stability index is on record?
The protein stability index was 1.48.

With FASLRPSEPFLTPALLGPDKNLTE as the variant, how does the protein stability index read?
The protein stability index was 2.42.

With FASLRPSEPFLTPMLLGPDKNLTE as the variant, how does the protein stability index read?
Its protein stability index is 2.6.

With FASLRPSEPFLTPCLLGPDKNLTE as the variant, how does the protein stability index read?
Its protein stability index is 2.27.

With FASLRPSEPFLHPYLLGPDKNLTE as the variant, how does the protein stability index read?
The protein stability index was 1.72.

Which protein stability index does the source give for FASLRPSEPFLFPYLLGPDKNLTE here?
The protein stability index was 1.74.

For FASLRPSEPFLRPYLLGPDKNLTE, which protein stability index is on record?
The protein stability index was 1.74.

Which protein stability index does the source give for FASLRPSEPFLPPYLLGPDKNLTE here?
Its protein stability index is 1.89.

With FASLRPSEPFLLPYLLGPDKNLTE as the variant, how does the protein stability index read?
Its protein stability index is 1.67.

With FMSLRPSEPFLTPYLLGPDKNLTE as the variant, how does the protein stability index read?
The protein stability index was 2.36.

With FPSLRPSEPFLTPYLLGPDKNLTE as the variant, how does the protein stability index read?
The protein stability index was 2.6.

Which protein stability index does the source give for FQSLRPSEPFLTPYLLGPDKNLTE here?
Its protein stability index is 1.72.

With FNSLRPSEPFLTPYLLGPDKNLTE as the variant, how does the protein stability index read?
The protein stability index was 3.64.

For FSSLRPSEPFLTPYLLGPDKNLTE, which protein stability index is on record?
The protein stability index was 3.02.

Which protein stability index does the source give for FGSLRPSEPFLTPYLLGPDKNLTE here?
The protein stability index was 2.74.

For FAVLRPSEPFLTPYLLGPDKNLTE, which protein stability index is on record?
Its protein stability index is 2.65.

With FALLRPSEPFLTPYLLGPDKNLTE as the variant, how does the protein stability index read?
Its protein stability index is 1.76.

For FAALRPSEPFLTPYLLGPDKNLTE, which protein stability index is on record?
The protein stability index was 1.59.

Which protein stability index does the source give for FACLRPSEPFLTPYLLGPDKNLTE here?
The protein stability index was 1.23.

For FAMLRPSEPFLTPYLLGPDKNLTE, which protein stability index is on record?
The protein stability index was 1.74.

With FASLRPSEPFLTMYLLGPDKNLTE as the variant, how does the protein stability index read?
The protein stability index was 1.46.

For FASLRPSEPFLTGYLLGPDKNLTE, which protein stability index is on record?
Its protein stability index is 1.59.

For FASLRPSEPFLTSYLLGPDKNLTE, which protein stability index is on record?
The protein stability index was 1.99.
